Measured values from PMC2800831.

Key:
[1] = target: Recombinant mouse fibulin-2 (mouse) (UniProt P37889); test: SPR
[2] = target: Recombinant mouse fibulin-5 (mouse) (UniProt Q9WVH9); test: SPR
Sequence of UniProt Q9WVH9 (Q9WVH9 24-448): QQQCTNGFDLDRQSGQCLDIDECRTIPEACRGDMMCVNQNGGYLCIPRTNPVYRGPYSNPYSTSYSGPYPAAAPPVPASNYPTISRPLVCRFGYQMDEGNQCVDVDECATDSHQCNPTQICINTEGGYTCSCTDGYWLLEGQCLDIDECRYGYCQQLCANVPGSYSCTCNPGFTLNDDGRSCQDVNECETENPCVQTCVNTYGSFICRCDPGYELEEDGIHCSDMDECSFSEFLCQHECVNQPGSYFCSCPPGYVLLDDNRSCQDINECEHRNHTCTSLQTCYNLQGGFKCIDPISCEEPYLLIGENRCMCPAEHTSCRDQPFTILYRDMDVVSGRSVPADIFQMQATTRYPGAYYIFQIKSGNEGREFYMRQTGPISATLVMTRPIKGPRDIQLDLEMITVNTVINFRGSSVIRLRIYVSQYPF

Sequence of UniProt P37889 (P37889 27-1221): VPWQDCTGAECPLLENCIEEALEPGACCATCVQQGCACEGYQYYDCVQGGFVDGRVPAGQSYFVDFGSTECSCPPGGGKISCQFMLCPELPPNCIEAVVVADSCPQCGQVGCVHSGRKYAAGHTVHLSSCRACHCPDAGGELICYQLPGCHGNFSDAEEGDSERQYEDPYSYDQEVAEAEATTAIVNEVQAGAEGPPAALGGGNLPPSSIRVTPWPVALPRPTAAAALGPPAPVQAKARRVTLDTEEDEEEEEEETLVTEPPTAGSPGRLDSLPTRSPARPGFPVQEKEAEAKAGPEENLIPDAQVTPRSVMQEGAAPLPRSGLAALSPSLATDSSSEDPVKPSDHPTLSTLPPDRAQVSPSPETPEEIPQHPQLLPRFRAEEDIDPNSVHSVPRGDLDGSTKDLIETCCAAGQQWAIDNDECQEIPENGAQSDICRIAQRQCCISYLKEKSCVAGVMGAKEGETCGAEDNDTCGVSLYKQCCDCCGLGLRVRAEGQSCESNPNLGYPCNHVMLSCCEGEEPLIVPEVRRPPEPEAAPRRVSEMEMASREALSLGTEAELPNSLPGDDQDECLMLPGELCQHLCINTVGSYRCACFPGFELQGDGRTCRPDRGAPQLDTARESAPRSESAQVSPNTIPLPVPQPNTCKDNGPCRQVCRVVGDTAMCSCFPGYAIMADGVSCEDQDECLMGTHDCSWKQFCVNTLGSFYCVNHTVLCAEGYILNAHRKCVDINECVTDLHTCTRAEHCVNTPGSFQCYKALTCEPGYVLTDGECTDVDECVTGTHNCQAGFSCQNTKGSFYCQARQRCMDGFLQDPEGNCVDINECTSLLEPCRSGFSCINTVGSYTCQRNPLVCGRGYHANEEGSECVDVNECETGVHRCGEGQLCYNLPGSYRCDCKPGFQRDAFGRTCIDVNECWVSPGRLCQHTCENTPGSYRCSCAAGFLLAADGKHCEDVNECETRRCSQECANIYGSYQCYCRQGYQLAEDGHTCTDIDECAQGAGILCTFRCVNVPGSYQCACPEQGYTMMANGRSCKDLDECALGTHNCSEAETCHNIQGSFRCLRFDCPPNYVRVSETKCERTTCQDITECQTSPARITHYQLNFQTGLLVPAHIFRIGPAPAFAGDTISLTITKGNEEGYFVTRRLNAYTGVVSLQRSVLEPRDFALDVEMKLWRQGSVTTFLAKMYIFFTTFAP

| Kd [1] | Kd [2] | Substance |
| --- | --- | --- |
| 1650 nM |  | Recombinant mouse fibulin-5 (from UniProt Q9WVH9 24-448) (natural protein) |
|  | 100 nM | Recombinant mouse fibulin-2 (from UniProt P37889 27-1221) (natural protein) |
